Results taken from the DeepSol protein solubility set.

Test: soluble on expression in E. coli; label from the status in PepcDB or PDB records
With “MAHHHHHHMHTFYTIRYPPPNSQKGGEDSQPIRVTNKAMESLLFCIVHSIEFQSPLQPSRPQLGSSIGSSGKDSITDDEAYVRPVENSSMLLGNVTYVSRSKHKPSVLASLHTAVEAARAIQIPEKSSQVPFELRVRLLRRHRGWLWHDSRPLVEWVFRMAKTREEFSFSTTHGDASERPRPRTSPRATNAHANVVRATGGGGVHSRSREDGLVCSNDPEQIRQVLQFILKHSYDAIDLNTYADFRSGELIFDVSVQEV” the “soluble on expression in E. coli” value was “not soluble”.
For “MAHHHHHHMILDLFDLCATPYAKRRSHLHSFMSELEDRLFRAEMALTQRRRSAVSPKEKRALGAVRPINVVVQEVLRETPILCFDEFQTFDVAHAALLAAFFSEAFREGLFFITTSNRPPEDLCRVSASFNAFLPVLRQHCHVVHCADIRDYRVKEAVERHHQLIFLHPNTKTNVERCCGVSSMLSGLVAESLHGSRRTHCGTTAAAS”, the “soluble on expression in E. coli” value was “soluble”.
With “MAHHHHHHMINSVYHSKKACVEALRAVERLQPSWWTPPCSEFLHRVEQTPTVTAQPNQKTLIVLEGIDGVGKSLVAQSLIEKLGDSAVLIRTPHPDLSGIRETFRAQTEETARAFYSAANYLAAWDAFHATKERKFVVFDRWWCSTCAMALANSCRLAALPAAGDAVYQWPQDLPPFQLGALLYVEEHIRQARIRQRAPEDAEERRLRAQQEMREVAMEAYRRFGLLNEVHVATYGVAVNRILALMTEKGLPHSATPFSAEELAALRQI” the “soluble on expression in E. coli” value was “soluble”.
In the case of “MAHHHHHHMKAKGPVKIVLFGAPGVGKGTFAEILSKKEKLKHINMGSILRDEIKNKTTIGREIHKVVTSGNLVADELVVKIVKGEIAKVTAQDGHFKGFILDGFPRNLLQCKQLVEITSIDLFVNIHMPRHILLKKIMGRRICHECNRNFNIAHIRDDPYDMPPILPPPECEKCKGNPKLQRRSDDEEEIVAHRLDTYESTNSHLINFFKNSNCNLVDFEIQRGLRDFDSFYRVVGQHL”, the “soluble on expression in E. coli” value is reported as “not soluble”.
For “MAHHHHHHMKGLHIRPMNDSRLCERIKVLDDYCFPVKYTESYYNDYVRNSFHEFNQLAFYHDILVGSITCRLEKTATDGEHVLYIMTIGVLEAYRHLRIGSRLLQTVLSAVHNDTRNRIVAVTLHVQVGSPALKLYRQFNFEEVQLVENYYTDLDECNAILLRRVVPQPHFEHHKKFK”, the “soluble on expression in E. coli” value was “not soluble”.
For “MAHHHHHHMKIVPPNFGYVEERIFRCGAPEPCHYAFLASLKLRTCVLLTESHDEAFVRWLRENNVHTVCPLYDGSRMNGLGDKMGCVGYHTGSMTLSEPVVVDILHVLVDPINYPLLLTCSVGRYRTGIVCGCLRKLQGWSLVSILEEYRRYAQDKGRAENEEFIELFDKDLVNLELKDGRRPTILYPYDV”, the “soluble on expression in E. coli” value was “soluble”.
For “MAHHHHHHMKLNIAYPRNGTVKQFEISDEVLRRVQLQDYRLGNEVDGAIFGSEFKGYIFRLRGGSDKDGFPMVPGVLASSRVSLLVKRGAIGFNTFRGYQGERRRKNVRGCVLASDIALVNVTISKVGDQPIEGVTDTTAPRRLGP”, the “soluble on expression in E. coli” value was “not soluble”.
With “MAHHHHHHMKNKSIRKERQSGETLEDNIEEINYCIKVIPKDKINSKGNGAIRLSNLDMNRSNNGNYYNQNNNVENINDFETECRNYIEDILKIDEYVKLPNSINNEQDKIKWKKAHSLRNRMKEYDLITRTRLYQSNSVNNKAKLNRERYIILNKIPRYREAFPSIMNNTSTDKIKEDIIRTYLKTHAAYFLSQNKKNSNLSLKNMGRNTYFSFRKKSDDRNNSLINYNKHMNDKSKSVEHNNCPNLKKKDRSYNLWKRITVDDIKNTHFTPTEKQYLKDYNIFLNDAFNNFKINQNNNKRQLNVKNQKNIPNYDMINNKIYGHIKNNANNNLYINNQKREDAYIINPSQNNIITSPNEEQYPYFNNYSYSDKNKNLSTYNTEGKRNIYTNDVKSNTNYQHSNNSNYSDESLNMFSNSSTSIYEKYNLKDKNFVLKRDRYALLGKIKNNKEIEVKLVLNKV” the “soluble on expression in E. coli” value was “not soluble”.
For “MAHHHHHHMKNVKVELDGKVYTILYEPKKVKFSDLDPLKIMFHSNHVKHSGNSVIRYLVKLTSRDISKMDYVVRHVDISYDRPLKYEDSYKIIGGITSYGSTSLRITLFGTNSSSKNGCSSNLGVKNILRNGACAHVDEAAKPEEGHEKASSSGEFKSEHSEVATRRDPNKKATKSDHHVEKLLAKYKEDNADAVIKLCRNKMNEIASQKHCINYFTAHYTLVRVNKEGAKEPIQEKYKNEFPPIEVEKLKELVSVFC”, the “soluble on expression in E. coli” value was “not soluble”.
With “MAHHHHHHMLCVSVAKDGFAIVLTGLDTKRRAPPHQQRLSRNVCFHQTKAKEFVARFHQPCFLAWSHRTIGHPDALQDGARRRQEYKPSHSHPFFRCNEGAHQHMCG” the “soluble on expression in E. coli” value was “soluble”.
For “MAHHHHHHMLGEGLDIGFYAEDAYAAYVTDLATSLHLVPHCRNARGATLEVVFTGPFHDLSAYEEAVKQGKLVPYAELPWPVAEERGVQGVSGATLSVTLHGWIEKLNAARKVQLMEPLFPAAELGATIAEICVMGDAGNSAPCAFASTSPPCVAESAGTSNEKGTHPSLKPSRFRILGSLDFLLHLSSRDWLMGESSVPADSPSADGRDEANPNFAVGADDATRAAHACRDALEQRDDVALARNAVNTVIKMAQMAEEHPGEVGSVFVDAKERVEYIQFSAQ”, the “soluble on expression in E. coli” value was “not soluble”.
In the case of “MAHHHHHHMLILKNVEHTILLKIVKRSFSRNVNNNKFVIKPSSLRIRSDKNNFNDIINKYFPNRILKKRKQQDDYSKMNDKNEEKDKKYYLSSKIERRLKMEKVNDQSNISFYNVIPRDKNKNNYLLDSYNNINNDDSTNISDNTNISDNTNISDNTNISDNTNISDNINISDNINISDDINICDKLNICDNTNINLFGYDMTSHQVRVEEKENNLTRNNKKNVLEITKEEHDIQKYKNKLHKKIWILLKRKSNEKEFEHYYNMLEKYPLKDEVSYSILLHGKLLISKRKKDNAENYYDIIKECFKILNEMKVKKIHPTLVRFNEKLVLSYYELIKLNVHPSYKQWMKILRTVWFVSALVKARRQKFILRKMKKIKNKNSVSLDNFNGTFNIHNLESLYVENRDPLIANNVQQGI”, the “soluble on expression in E. coli” value is reported as “soluble”.
In the case of “MAHHHHHHMLNITRLRNLPEDLFEVDRRQKNGSNQSGKGWPQHKELIFDFTSLVRAYNQNKFEHLTDTFNNNRILISELVLHQLDEKNKVVRSTDAANAQEDDFHPVRLRDLINFLVTNMTESWLEFQRKGTQEDKQFTQLRCLNENVETPLRLISYALYKKRQGKDVLLVTSDSGLKCEAGLNSIDSQSIENIG”, the “soluble on expression in E. coli” value is reported as “not soluble”.
In the case of “MAHHHHHHMLPNHSCKGFVDAQGRVFVDGREYPMASGIVATEDVIQANIKAMANTIAKDYKSLSHRDVRLSPGTAATAEAAEAPISYDNPLIIISVLKGSYIFTSDFIRYLGDCGLPHVVDFVRLASYNSDTTSTGQISMLAGLRFENLRGKHVLIVEDVCDSGRTLRFLRDYIMEKFQPKSVKTLVMVNKEQAARKLDFDPEYFCLAGPNKYIVGYGFEVNDRYRDLRHIFILRDGEATRYPAKL”, the “soluble on expression in E. coli” value is reported as “soluble”.
For “MAHHHHHHMLRGKSGLTASSSLEGGSEFSERIGNTLSSFLSESASLEVIGNELADNIANEIVGSLQNDSASFLQSEFDVKAQLKATAKKVLTEALKAALEPTEKIVASTIKPPRIKEDIYFLLSPVVRSLFNKVEDVLHKPVSDDIWNYESRGSSSEEEDEVDSDEDFLD”, the “soluble on expression in E. coli” value was “soluble”.
In the case of “MAHHHHHHMLRHCIPRLGIAKTVIKDNYSLSTLTNGLRVLTCDDGNGVTGMGLFMLNGAKFESPDNAGAAAVFEALPLRDNQIYTSREISQALSGLGNAFKVTNNKEALSVILMLPRYHQRDGLELLNAMCLHPTRNEEEFRIAKEKTHERTLLYDRDATSVCFELVHEAGWNGKGLGHSLNPKKEELDKLTLEKFTAFHSACTRPERTVLAATGVADHKSFAEEVEKLLRFNNADVAVQAMPQLQPGYYPYTGGSRLVHRTEAPESVNKFQEKSLSHVALFFQGVPINHPDYYNISVIQTLLGGGTSFSSGGPGKGMQTKLFREVLNREGFLHGLECITAWYSDGGLFGLYGTAPHQAVVSLLNVMIYQAASICQRVSPTHLEMAKNQLRSQLILLGEGREQLLSDMGFNLVVHNHIITATETMEGTRNITLDDLKRVCADMIKKPLTFTVYGDTTKMPSHESLEETVRKTYEKLN”, the “soluble on expression in E. coli” value is reported as “not soluble”.
With “MAHHHHHHMLRLCRVSLRVQSHQKKRAQHPNAGTRFGRVYNRGFIRYGFGGFGMSVYTPKKDRRFRVQPLPSLHANSLADDTPLVTTTRTLSPNFRAFALQDGGVFFTHPSHEQVMRVGQNILAEETKATGMTSMDTYVNSRIQSIIAENTVENVALSHWRRRHMWNLVRTHGKLQRHWGVSDATKGARSNIYGRPS” the “soluble on expression in E. coli” value was “not soluble”.
For “MAHHHHHHMLRQSLLSLAKVYGAVPPLGAAQGHRLLHGKREREGSLFAVANDVKRDERLLRQQLNALLEEERMPMQARLQRSEAVSSHEAVPQTPLVDLPGVERRRDLPADPITRLFFQHKGDHALYYGTYDKPSVQDDDRVQIEKRVPRRREENLYTPIYDFCHRIREATEQRKRFVVVPSTIETRGCARVMHDHGLVAGFRDFHNDRAFAVELKYFQGDSTINVIEPCSYDGRTEFEWSPKMMRRLLNTHGIHNRLVVYICRTADNRIIDHIHAVKENIGGRGLMMVH”, the “soluble on expression in E. coli” value was “not soluble”.
For “MAHHHHHHMLSNVPEEPEKLVREVSDLAEAFITNLKRGKLAAARSGGESLSTAAAVEMADVMSTIVRLFQNAEKDLHSTTIQLLKAGYPAAEVASMQVSRLLILVARTGDAMLRAQFATLFLMNVTRRVLSIVRESAANSKATDAELEDEAKTILNDLASDDEAAVVETPADTSSSSSNRCGMDDSTDPASPSLSAKGMKPALKRDTLVSQPLSRRGLSVRFAGTSTSSEEASGGHMRQLQQHSTSVASDFGGPLLQHTGSIVATEIPGRQLLKRAPSRCEQVLEGGGGEIEFPVRMEIFYQDALDAIDEFKRELEGMTEELCRRSTRQLHSSDTIITLGCSHTIRRYLLEAAQAGHHFKVFILEGAPLPAQATQEFAEALCSRGITAQLLPDSSAYVVMSMCTKVLVGAENVLANGGMLASIGTHVLCAAARHFAVPVLVATTTLKMSPYYPSDQLCTRLVRIARSGAQEMPWSTYGSPEDVWPSPFGVSVSDSGRRLTIHAPVTEYVPPELITLFLTNDSELLPSQIHRIVRANYSDAD”, the “soluble on expression in E. coli” value was “not soluble”.
With “MAHHHHHHMLTLNRRDKEICQELIRKNFTLSQIQSYNEPEYSGWVSRRRRVSNIFVWELNWLATSGNYLLCFSQKKDSCHPIKIMYLPEAIIRRCSMKEECCVGHPFVLEIVPCLHFVREEKGLFPVKPHEVHFSFENVEDLCGTIAFLAKISARHVRTASITFGPPTRVNHRIHLRAARGKNDFGLELLPLPMREWLLRQGITCAEMAGNETTALNCATTLYEVQMQRGMLEDLPPISEEGVTEKRYEDKAGVPPFPLPSENEGGALEPLLSAGDPESLFSDWERLDGGSQGEVFKAVRVVDGRKVAIKRITVRGDHKVPQSLVKEMSLLKALHHPNIVTLYDCYRKGKHLFLAMELMDGGKLTDLLIPSEGEPVEFTEAQLATLIREVLRALRCLHNARCVHRDVKSDNVLLSSNGEVKLGDFGFATLLTSPGGMRRTLVGTPYWMAPEVAGGKAYNDKADVWSAGILFLEMCDGQPPLMGMNPMRALLTVSTGPPPVMRTANRWSSLCREFASFLLVKDPARRPSVDDALRHPFIVKKAEPTCRFVATILQRRK” the “soluble on expression in E. coli” value was “soluble”.
